From paper doi:10.1101/2020.07.27.221150
Where two headings read alike, the source gives them in different places.

Tests used:
[1] = biological target: GNNQQNY, N-terminal hepta-peptide of yeast prion protein Sup35 (yeast)
[2] = biological target: GNNQQNY, N-terminal hepta-peptide of yeast prion protein Sup35 (yeast); remark: listed apart in the source

GNNQQNY, N-terminal hepta-peptide of yeast prion protein Sup35
size of the critical nucleus n* [1]: 7.2 monomers | size of the critical nucleus n* [2]: 6 monomers
